Laboratory results taken from patent publication US7657380.
Positions count from the first letter of the chain named.

T1: human CD30 (commercial, conjugated to digoxigenin) (human, UniProt P28908 19-379, limits assumed, conjugated to digoxigenin (DIG))
T1 sequence (looked up): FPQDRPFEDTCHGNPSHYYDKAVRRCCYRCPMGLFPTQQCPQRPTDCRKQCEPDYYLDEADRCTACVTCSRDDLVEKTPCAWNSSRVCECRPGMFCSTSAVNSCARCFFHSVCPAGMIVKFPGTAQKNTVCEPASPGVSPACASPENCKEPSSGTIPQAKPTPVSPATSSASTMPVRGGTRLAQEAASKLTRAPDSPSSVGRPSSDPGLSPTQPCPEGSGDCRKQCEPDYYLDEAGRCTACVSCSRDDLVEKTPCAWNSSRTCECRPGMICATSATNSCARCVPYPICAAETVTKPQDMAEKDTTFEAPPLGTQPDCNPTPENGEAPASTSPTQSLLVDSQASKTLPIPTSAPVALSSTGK

T2: CD30 fused to the Fc region of IgG1 (R&D Systems) (UniProt P28908 19-379)
T2 sequence (looked up): T1 sequence (looked up)

B1: C225 L0/H3 full length antibody (antibody, IgG1, V domains shown)
VH: QVQLQQSGPGLVKPSQTLSLTCTVSGFSLTNYGVHWVRQAPGKGLEWLGVIWSGGNTDYNTSLKSRLTISKDNSKSQVVLQMNSLRAEDTAVYYCARALTYYDYEFAYWGQGTLVTVSS
VL: not shown
B2: C225 L3/H7 full length antibody (antibody, IgG1, V domains shown)
VH: B1 VH with A40P, L48I, L67V, V79S, Q81K, M82L, N83S, L85V, R86T, E88A
VL: DILLTQSPSSLSASVGDRVTITCRASQSIGTNIHWYQQKPDQSPKLLIKYASESISGIPSRFSGSGSGTDFTLTISSLQAEDVAVYYCQQNNNWPTTFGAGTKLEIK
B3: C225 L3/H5 full length antibody (antibody, IgG1, V domains shown)
VH: B1 VH with S62P, K64T, S70N
VL: B2 VL
B4: C225 L2/H8 full length antibody (antibody, IgG1, V domains shown)
VH: QVQLVESGGGLVQPGRSLRLSCAVSGFSLTNYGVHWVRQAPGKGLEWVSVIWSGGNTDYNTSVKGRFTISKDNSKSTVYLQMNSLRAEDTAVYYCARALTYYDYEFAYWGQGTLVTVSS
VL: B2 VL with S9A, S10T, A13L, V15P, D17E, I21L, T22S, A80P, V83F, V85D
B5: C225 L3/H4 full length antibody (antibody, IgG1, V domains shown)
VH: B1 VH with Q81T, N83T, S84N, L85M, R86D, A87P, E88V, V92T
VL: B2 VL
B6: C225 L4/H5 full length antibody (antibody, IgG1, V domains shown)
VH: B1 VH with S62P, K64T, S70N
VL: DILLTQSPAFLSVTPGEKVTITCRASQSIGTNIHWYQQKPDQSPKLLIKYASESISGIPSRFSGSGSGTDFTLTINSLEAEDAATYYCQQNNNWPTTFGAGTKLEIK
B7: C225 L4/H7 full length antibody (antibody, IgG1, V domains shown)
VH: B1 VH with A40P, L48I, L67V, V79S, Q81K, M82L, N83S, L85V, R86T, E88A
VL: B6 VL
B8: C225 L3/H8 full length antibody (antibody, IgG1, V domains shown)
VH: B4 VH
VL: B2 VL
B9: C225 L4/H6 full length antibody (antibody, IgG1, V domains shown)
VH: B1 VH with L48V, L63V, S65G, L67F, V79Y
VL: B6 VL
B10: C225 L3/H6 full length antibody (antibody, IgG1, V domains shown)
VH: B1 VH with L48V, L63V, S65G, L67F, V79Y
VL: B2 VL
B11: C225 L4/H4 full length antibody (antibody, IgG1, V domains shown)
VH: B1 VH with Q81T, N83T, S84N, L85M, R86D, A87P, E88V, V92T
VL: B6 VL
B12: C225 L4/H3 full length antibody (antibody, IgG1, V domains shown)
VH: B1 VH
VL: B6 VL
B13: C225 L0/H6 full length antibody (antibody, IgG1, V domains shown)
VH: B1 VH with L48V, L63V, S65G, L67F, V79Y
VL: not shown
B14: C225 L2/H7 full length antibody (antibody, IgG1, V domains shown)
VH: B1 VH with A40P, L48I, L67V, V79S, Q81K, M82L, N83S, L85V, R86T, E88A
VL: B2 VL with S9A, S10T, A13L, V15P, D17E, I21L, T22S, A80P, V83F, V85D
B15: C225 L2/H5 full length antibody (antibody, IgG1, V domains shown)
VH: B1 VH with S62P, K64T, S70N
VL: B2 VL with S9A, S10T, A13L, V15P, D17E, I21L, T22S, A80P, V83F, V85D
B16: C225 L2/H6 full length antibody (antibody, IgG1, V domains shown)
VH: B1 VH with L48V, L63V, S65G, L67F, V79Y
VL: B2 VL with S9A, S10T, A13L, V15P, D17E, I21L, T22S, A80P, V83F, V85D
B17: C225 L0/H5 full length antibody (antibody, IgG1, V domains shown)
VH: B1 VH with S62P, K64T, S70N
VL: not shown
B18: C225 L0/H7 full length antibody (antibody, IgG1, V domains shown)
VH: B1 VH with A40P, L48I, L67V, V79S, Q81K, M82L, N83S, L85V, R86T, E88A
VL: not shown
B19: C225 L3/H3 full length antibody (antibody, IgG1, V domains shown)
VH: B1 VH
VL: B2 VL
B20: C225 L0/H4 full length antibody (antibody, IgG1, V domains shown)
VH: B1 VH with Q81T, N83T, S84N, L85M, R86D, A87P, E88V, V92T
VL: not shown
B21: C225 L0/H8 full length antibody (antibody, IgG1, V domains shown)
VH: B4 VH
VL: not shown
B22: C225 L4/H8 full length antibody (antibody, IgG1, V domains shown)
VH: B4 VH
VL: B6 VL
B23: AC10 H0/L2 full length antibody (antibody, V domains shown)
VH: QIQLQQSGPEVVKPGASVKISCKASGYTFTDYYITWVKQKPGQGLEWIGWIYPGSGNTKYNEKFKGKATLTVDTSSSTAFMQLSSLTSEDTAVYFCANYGNYWFAYWGQGTQVTVSA
VL: DIVLTQSPSSLSASVGDRVTITCRASQSVDFDGDSYMNWYQQKPGQPPKVLIYAASNLESGIPARFSGSGSGTDFTLTISSLQPEDFATYYCQQSNEDPWTFGGGTKVEIK
B24: AC10 H2/L2 full length antibody (antibody, V domains shown)
VH: QIQLVESGGGLVKPGGSLRLSCAASGYTFTDYYITWVRQAPGQGLEWMGWIYPGSGNTKYNEKFQGRVTMTVDTSTSTAYMELSSLRSEDTAVYFCANYGNYWFAYWGQGTLVTVSS
VL: B23 VL
B25: AC10 H0/L1 full length antibody (antibody, V domains shown)
VH: B23 VH
VL: B23 VL with S9A, S10T, A13L, V15P, D17E, V19A, I21L, T22S
B26: AC10 H0/L3 full length antibody (antibody, V domains shown)
VH: B23 VH
VL: DIVLTQSPDSLAVSLGERATINCKASQSVDFDGDSYMNWYQQKPGQPPKVLIYAASNLESGIPARFSGSGSGTDFTLTINSLEAEDAATYYCQQSNEDPWTFGGGTKVEIK
B27: C225 L2/H3 Fab (Fab, V domains shown)
VH: B1 VH
VL: B2 VL with S9A, S10T, A13L, V15P, D17E, I21L, T22S, A80P, V83F, V85D
B28: C225 L2/H4 Fab (Fab, V domains shown)
VH: B1 VH with Q81T, N83T, S84N, L85M, R86D, A87P, E88V, V92T
VL: B2 VL with S9A, S10T, A13L, V15P, D17E, I21L, T22S, A80P, V83F, V85D

Molecular target: T3, EGFR extracellular domain (R&D Systems) (UniProt P00533 25-645, limits assumed)
Test: SPR, full length antibody over EGFR chip

| Binder | binding result |
| --- | --- |
| B1 | binds |
| B2 | binds |
| B3 | binds |
| B4 | binds |
| B5 | binds |
| B6 | binds |
| B7 | binds |
| B8 | binds |
| B9 | binds |
| B10 | binds |
| B11 | binds |
| B12 | binds |
| B13 | binds |
| B14 | binds |
| B15 | binds |
| B16 | binds |
| B17 | binds |
| B18 | binds |
| B19 | binds |
| B20 | binds |
| B21 | binds |
| B22 | binds |

Molecular target: T1, human CD30 (commercial, conjugated to …)
Test: AlphaScreen competition vs biotin-WT AC10

| Binder | Fold IC50 vs WT [fold] | IC50 [nM] |
| --- | --- | --- |
| B23 | 0.41 | 7.81 |
| B24 | 0.06 | 49.2 |
| B25 | 0.61 | 5.19 |
| B26 | 0.69 | 4.61 |

Molecular target: T3, EGFR extracellular domain (R&D Systems)
Test: SPR, Fab over EGFR ECD on CM5 chip

| Binder | Kd [nM] | koff [s⁻¹] | kon [M⁻¹ s⁻¹] |
| --- | --- | --- | --- |
| B27 | 192 | 0.00535 | 27900 |
| B28 | 264 | 0.00473 | 17900 |

Molecular target: T2, CD30 fused to the Fc region of IgG1 …
Test: SPR, CD30-Fc on Protein A chip

| Binder | Fold KD vs WT [fold] | Kd [nM] |
| --- | --- | --- |
| B23 | 0.97 | 3.48 |
| B24 | 0.57 | 5.95 |
| B25 | 1.03 | 3.29 |
| B26 | 1.13 | 3 |
